The results in this text go back to doi:10.1101/2025.03.17.643633 (bioRxiv, 2025).

This test deals with T1, TIE1 ectodomain, aa 21-760 (human, UniProt P35590-1 21-760).
T1 sequence: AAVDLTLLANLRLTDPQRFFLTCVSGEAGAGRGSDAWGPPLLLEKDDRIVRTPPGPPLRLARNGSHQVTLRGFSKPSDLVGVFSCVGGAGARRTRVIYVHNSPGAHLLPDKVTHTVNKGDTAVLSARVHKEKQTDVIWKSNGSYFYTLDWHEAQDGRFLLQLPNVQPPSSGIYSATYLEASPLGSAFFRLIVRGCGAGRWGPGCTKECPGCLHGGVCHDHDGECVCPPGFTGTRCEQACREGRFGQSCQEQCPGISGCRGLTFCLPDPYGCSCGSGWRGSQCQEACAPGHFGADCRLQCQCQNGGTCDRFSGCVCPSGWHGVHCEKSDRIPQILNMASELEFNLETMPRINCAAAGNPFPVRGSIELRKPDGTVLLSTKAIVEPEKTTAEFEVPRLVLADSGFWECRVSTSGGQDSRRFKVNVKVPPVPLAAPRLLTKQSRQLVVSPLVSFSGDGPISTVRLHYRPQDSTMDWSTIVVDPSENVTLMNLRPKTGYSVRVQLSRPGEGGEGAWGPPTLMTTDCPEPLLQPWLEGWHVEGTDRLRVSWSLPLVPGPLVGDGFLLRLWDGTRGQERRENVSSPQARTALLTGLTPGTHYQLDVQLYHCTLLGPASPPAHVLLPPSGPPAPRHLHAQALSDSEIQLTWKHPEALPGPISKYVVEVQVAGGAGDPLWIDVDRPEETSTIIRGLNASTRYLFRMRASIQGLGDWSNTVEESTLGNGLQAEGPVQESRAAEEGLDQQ
Kind of test: SPR. Background: In SPR one partner is held on a chip, and binding of the other changes the refractive index at the surface.

The term Kd denotes the concentration at which binding is half-saturated. A higher Kd goes with weaker binding.

B1: Human SVEP1-Strep II recombinant protein, CCP15 to CCP24, aa 2261-2890 (70 kDa version) (domain or fragment)
chain: PLDCGKPPPIQNGFMKGENFEVGSKVQFFCNEGYELVGDSSWTCQKSGKWNKKSNPKCMPAKCPEPPLLENQLVLKELTTEVGVVTFSCKEGHVLQGPSVLKCLPSQQWNDSFPVCKIVLCTPPPLISFGVPIPSSALHFGSTVKYSCVGGFFLRGNSTTLCQPDGTWSSPLPECVPVECPQPEEIPNGIIDVQGLAYLSTALYTCKPGFELVGNTTTLCGENGHWLGGKPTCKAIECLKPKEILNGKFSYTDLHYGQTVTYSCNRGFRLEGPSALTCLETGDWDVDAPSCNAIHCDSPQPIENGFVEGADYSYGAIIIYSCFPGFQVAGHAMQTCEESGWSSSIPTCMPIDCGLPPHIDFGDCTKLKDDQGYFEQEDDMMEVPYVTPHPPYHLGAVAKTWENTKESPATHSSNFLYGTMVSYTCNPGYELLGNPVLICQEDGTWNGSAPSCISIECDLPTAPENGFLRFTETSMGSAVQYSCKPGHILAGSDLRLCLENRKWSGASPRCEAISCKKPNPVMNGSIKGSNYTYLSTLYYECDPGYVLNGTERRTCQDDKNWDEDEPICIPVDCSSPPVSANGQVRGDEYTFQKEIEYTCNEGFLLEGARSRVCLANGSWSGATPDCVPVR
The molecule B1 returned a Kd of 62.5 nM.
